Data taken from article PMC6237740.

What was measured:
Assay in all cases: fluorescence anisotropy competition
[1] = system: Ets-1 ETS domain WT (Mus musculus); details: normo-osmotic; 10 mM TrisHCl pH 7.4, 0.15 M NaCl, 0.1 mg/ml BSA, betaine to set osmolality (0.3 osm without stress); Cy3-DNA probe displaced by unlabeled DNA; binding …
[2] = system: PU.1 ETS domain WT (PU.1ΔN167); details: 10 mM TrisHCl pH 7.4, 0.15 M NaCl, 0.1 mg/ml BSA, betaine to set osmolality (0.3 osm without stress), Cy3-DNA probe displaced by unlabeled DNA
[3] = system: PU.1/Ets-1 S3 chimera; details: 0.1 mg/ml BSA, betaine to set osmolality (0.3 osm without stress), Cy3-DNA probe displaced by unlabeled DNA
[4] = system: PU.1/Ets-1 H2 chimera; details: 10 mM TrisHCl pH 7.4, 0.15 M NaCl, 0.1 mg/ml BSA, betaine to set osmolality (0.3 osm without stress); Cy3-DNA probe displaced by unlabeled DNA; binding …
[5] = system: PU.1/Ets-1 H3 chimera; details: 10 mM TrisHCl pH 7.4, 0.15 M NaCl, 0.1 mg/ml BSA, betaine to set osmolality (0.3 osm without stress); Cy3-DNA probe displaced by unlabeled DNA; binding …
[6] = system: PU.1/Ets-1 loop chimera; details: 10 mM TrisHCl pH 7.4, 0.15 M NaCl, 0.1 mg/ml BSA, betaine to set osmolality (0.3 osm without stress); Cy3-DNA probe displaced by unlabeled DNA; binding …
[7] = system: PU.1/Ets-1 wing chimera; details: 10 mM TrisHCl pH 7.4, 0.15 M NaCl, 0.1 mg/ml BSA, betaine to set osmolality (0.3 osm without stress); Cy3-DNA probe displaced by unlabeled DNA; binding …

| Substance | Kd [1] [nM] | binding signal ([2]; may replot earlier WT data, scale: fold affinity vs S3 chimera on the same low-affinity DNA) | binding signal ([3]; weaker than S3 chimera on N1, 10 mM TrisHCl pH 7.4, 0.15 M NaCl, scale: fold stronger than WT PU.1 on the same low-affinity DNA) | Kd ([2]; binding …) [nM] | Kd [4] [nM] | Kd [5] [nM] | Kd ([3]; 10 mM TrisHCl pH 7.4, 0.15 M NaCl, binding …) [nM] | Kd [6] [nM] | Kd [7] [nM] |
| --- | --- | --- | --- | --- | --- | --- | --- | --- | --- |
| SC1 optimal Ets-1 site | 0.17 | – | – | – | – | – | – | – | – |
| low-affinity PU.1 site, 23-bp duplex | – | 0.2 | 5 | – | – | – | – | – | – |
| AGC high-affinity PU.1 site, 23-bp duplex | 0.6 | – | – | 0.34 | 0.8 | 22 | 0.49 | 1.3 | 1.6 |
